Conditions: Bos taurus; pH 7.1; 25 °C; Urea; CD; PIPES 20 mM; reversible: yes; whole UniProt chain shown

B1: Protein S100-G wild type, P02633 (protein)
chain: MSAKKSPEELKGIFEKYAAKEGDPNQLSKEELKLLLQTEFPSLLKGPSTLDELFEELDKNGDGEVSFEEFQVLVKKISQ
- denaturant m value: 0.91 kcal/mol/M
- denaturant midpoint (higher = more stable): 5.2 M
- unfolding free energy: 4.78 kcal/mol

From FireProtDB (doi:10.1111/j.1432-1033.1988.tb14214.x)
